The chains are these.
T1: AP2-G D1 (Plasmodium falciparum, UniProt Q8I5I9 2123-2245)
T1 sequence: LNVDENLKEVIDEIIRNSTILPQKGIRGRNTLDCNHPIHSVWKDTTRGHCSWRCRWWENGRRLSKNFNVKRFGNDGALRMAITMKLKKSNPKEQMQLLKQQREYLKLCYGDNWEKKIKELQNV

B1: XGTACX_site3178 (dsDNA)
DNA 1: CTTGAAAGATTTTATTGTACTCATAAGATACATTTC
DNA 2: GAAATGTATCTTATGAGTACAATAAAATCTTTCAAG
B2: XGTACX_site3752 (dsDNA)
DNA 1: TAAAAAAAAAAAAAAAGTACACACATACATATAAAT
DNA 2: ATTTATATGTATGTGTGTACTTTTTTTTTTTTTTTA
B3: XGTACX_site6504 (dsDNA)
DNA 1: TGAAAAGATAAAAAAAGTACACACACACATATATAT
DNA 2: ATATATATGTGTGTGTGTACTTTTTTTATCTTTTCA
B4: XGTACX_site4360 (dsDNA)
DNA 1: GATTAAAATCAAAGGTGTACGCACAAATAAGTCCCA
DNA 2: TGGGACTTATTTGTGCGTACACCTTTGATTTTAATC
B5: XGTACX_site5245 (dsDNA)
DNA 1: AAAAACAAAATTTGGAGTACAGTTATAATATTATTA
DNA 2: TAATAATATTATAACTGTACTCCAAATTTTGTTTTT
B6: XGTACX_site882 (dsDNA)
DNA 1: TTTTCTTTTTTGAACTGTACGCGTAAATTTAAAAAG
DNA 2: CTTTTTAAATTTACGCGTACAGTTCAAAAAAGAAAA
B7: XGTACX_site6063 (dsDNA)
DNA 1: ATGCATATATTTATGTGTACATATATTTGTAGGGGG
DNA 2: CCCCCTACAAATATATGTACACATAAATATATGCAT
B8: XGTACX_site3050 (dsDNA)
DNA 1: ATATAATTTTTCAAGTGTACTTTTTTTTTTTAACAT
DNA 2: ATGTTAAAAAAAAAAAGTACACTTGAAAAATTATAT
B9: XGTACX_site1238 (dsDNA)
DNA 1: ATGTGCACATATAAAAGTACACGCACATATATATAT
DNA 2: ATATATATATGTGCGTGTACTTTTATATGTGCACAT
B10: XGTACX_site6064 (dsDNA)
DNA 1: TAAAACATATAAAGGTGTACGCCTTTTTGTATCAAT
DNA 2: ATTGATACAAAAAGGCGTACACCTTTATATGTTTTA
B11: XGTACX_site6677 (dsDNA)
DNA 1: TTGTATTTCCTTAGGAGTACACATAAATAAGTAAAT
DNA 2: ATTTACTTATTTATGTGTACTCCTAAGGAAATACAA
B12: XGTACX_site5339 (dsDNA)
DNA 1: TATTTTTTACATTCGTGTACGCATTTTTGTGAATTT
DNA 2: AAATTCACAAAAATGCGTACACGAATGTAAAAAATA
B13: XGTACX_site2346 (dsDNA)
DNA 1: TTAATAATAAAAAGGAGTACACTAATATACTATAAA
DNA 2: TTTATAGTATATTAGTGTACTCCTTTTTATTATTAA
B14: XGTACX_site2257 (dsDNA)
DNA 1: CAAAATATACACACGTGTACACAAATATTTACAAAA
DNA 2: TTTTGTAAATATTTGTGTACACGTGTGTATATTTTG
B15: XGTACX_site5031 (dsDNA)
DNA 1: ACATTATATAAAATATGTACACATAAATAAATAAAT
DNA 2: ATTTATTTATTTATGTGTACATATTTTATATAATGT
B16: XGTACX_site622 (dsDNA)
DNA 1: CTTTGTGTTAAAAGTAGTACACCAAAAATATGACTT
DNA 2: AAGTCATATTTTTGGTGTACTACTTTTAACACAAAG
B17: XGTACX_site2176 (dsDNA)
DNA 1: CTTCTTATTTTCTAATGTACGTACAAATCATTTATA
DNA 2: TATAAATGATTTGTACGTACATTAGAAAATAAGAAG

The target of the series is T1, AP2-G D1. In words: gcPBM; about 25 ug protein; PBS, 1% milk, 0.2 mg/ml BSA, salmon testes DNA, 0.03% Triton X-100. As to conditions: tags: N-terminal GST (pGEX-4T-1), kept; label: surface-attached array probe.
On to B1, for which the binding signal is 12.7 ln median PBM intensity, better of two orientations.
The same measure for B2: 12.7 ln median PBM intensity, better of two orientations.
As for B3, the binding signal was 12.7 ln median PBM intensity, better of two orientations.
For B4, the binding signal is 12.7 ln median PBM intensity, better of two orientations.
In the case of B5, the binding signal is 12.7 ln median PBM intensity, better of two orientations.
With B6 the figure was 12.7 ln median PBM intensity, better of two orientations; with B7, 12.6 ln median PBM intensity, better of two orientations; with B8, 12.7 ln median PBM intensity, better of two orientations.
With B9 the figure was 12.6 ln median PBM intensity, better of two orientations; with B10, 12.6 ln median PBM intensity, better of two orientations.
Take B11: the binding signal was 12.7 ln median PBM intensity, better of two orientations.
The same measure for B12: 12.7 ln median PBM intensity, better of two orientations; for B13: 12.7 ln median PBM intensity, better of two orientations; for B14: 12.6 ln median PBM intensity, better of two orientations.
The same measure for B15: 12.7 ln median PBM intensity, better of two orientations; for B16: 12.7 ln median PBM intensity, better of two orientations.
The same measure for B17: 12.6 ln median PBM intensity, better of two orientations.

These data come from paper PMC11417369, “DNA sequence and chromatin differentiate sequence-specific transcription factor binding in the human malaria parasite Plasmodium falciparum”.
